Reference: patent US20160320385A1

Experiments:
[1] = biological target: monoclonal antibody (moAb) G12; assay: competitive ELISA with G12-HRP on a plate coated with Sigma gliadin
[2] = biological target: PWG gliadin after gastric and intestinal digestion (pepsin, then trypsin and chymotrypsin); assay: immunochromatographic strips based on G12 moAb (GlutenTox stick); hydrolyzed gliadin
[3] = biological target: PWG gliadin (intact, undigested) (wheat); assay: immunochromatographic strips based on G12 moAb (GlutenTox stick); gliadin
[4] = biological target: 33-mer peptide from alpha-2 gliadin; assay: immunochromatographic strips based on G12 moAb (GlutenTox stick); untreated 33-mer peptide
Chain of 33-mer peptide from alpha-2 gliadin (peptide, as listed by the source): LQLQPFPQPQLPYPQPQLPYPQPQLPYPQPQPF

[5] = biological target: 33-mer peptide from alpha-2 gliadin; assay: immunochromatographic strips based on G12 moAb (GlutenTox stick); 33-mer peptide after digestion

Row | concentration of 33-mer (33-mer equivalents) [1] | Substance | detection limit [2] [ng/mL] | detection limit [3] [ng/mL] | detection limit [4] [ng/mL] | detection limit [5] [ng/mL]
1 | 21.6 ng 33-mer/µg | PWG gliadin (intact, undigested) |  |  |  | 
2 | 7.5 ng 33-mer/µg | PWG gliadin after gastric and intestinal digestion (pepsin, then trypsin and chymotrypsin) |  |  |  | 
3 | 24.5 ng 33-mer/ng | PWG gliadin after gastric digestion (pepsin) |  |  |  | 
4 |  | monoclonal antibody (moAb) G12 | 50 | 30 | 0.5 | 0.5
